We go through four proteins from US6541002.

The data set concerns the target T1, Vpr protein of HIV-1, P12520.
T1 chain: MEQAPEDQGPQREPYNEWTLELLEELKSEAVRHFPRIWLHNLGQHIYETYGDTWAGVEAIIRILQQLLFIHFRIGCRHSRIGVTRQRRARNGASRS

B1: dWF-IN fusion protein (protein)
chain: MQPWWAFFGGGSSWWSFSMGPTRFLDGIDKAQEEHEKYHSNWRAMASDFNLPPVVAKEIVASCDKCQLKGEAMHGQVDCSPGIWQLDCTHLEGKVILVAVHVASGYIEAEVIPAETGQETAYFLLKLAGRWPVKTVHTDNGSNFTSTTVKAACWWAGIKQEFGIPYNPQSQGVIESMNKELKKIIGQVRDQAEHLKTAVQMAVFIHNFKRKGGIGGYSAGERIVDIIATDIQTKELQKQITKIQNFRVYYRDSRDPVWKGPAKLLWKGEGAVVIQDNSDIKVVPRRKAKIIRDYGKQMAGDDCVASRQDED
Regarding B1, the “presence of the fusion protein in progeny virions (Western blotting)” value is recorded as “the presence of dWF-fusion proteins in progeny virions was dependent on expression of Vpr in cells in which the progeny virions were produced”.

B2: dWF-PR-IN fusion protein (protein)
chain: MQPWWAFFGGGSSWWSFSMGPTRFLDGIDKAQEEHEKYHSNWRAMASDFNLPPVVAKEIVASCDKCQLKGEAMHGQVDCSPGIWQLDCTHLEGKVILVAVHVASGYIEAEVIPAETGQETAYFLLKLAGRWPVKTVHTDNGSNFTSTTVKAACWWAGIKQEFGIPYNPQSQGVIESMNKELKKIIGQVRDQAEHLKTAVQMAVFIHNFKRKGGIGGYSAGERIVDIIATDIQTKELQKQITKIQNFRVYYRDSRDPVWKGPAKLLWKGEGAVVIQDNSDIKVVPRRKAKIIRDYGKQMAGDDCVASRQDED
As for B2, the “presence of the fusion protein in progeny virions (Western blotting)” value is “the presence of dWF-fusion proteins in progeny virions was dependent on expression of Vpr in cells in which the progeny virions were produced”.

B3: chloramphenicol acetyltransferase (CAT) (protein)
chain: MEKKITGYTTVDISQWHRKEHFEAFQSVAQCTYNQTVQLDITAFLKTVKKNKHKFYPAFIHILARLMNAHPEFRMAMKDGELVIWDSVHPCYTVFHEQTETFSSLWSEYHDDFRQFLHIYSQDVACYGENLAYFPKGFIENMFFVSANPWVSFTSFDLNVANMDNFFAPVFTMGKYYTQGDKVLMPLAIQVHHAVCDGFHVGRMLNELQQYCDEWQGGA
Consider B3, for which the “CAT activity of virions (conversion of chloramphenicol to an acetylated product)” value was “CAT activity exhibited by virions which were generated by Vpr^-/WF-CAT cells was comparable to CAT activity exhibited by virions which were generated by WT/CAT cells (each 8% conversion”.

B4: dWF-CAT chimeric protein (protein)
chain: MQPWWAFFGGGSSWWSFSMGPTRMEKKITGYTTVDISQWHRKEHFEAFQSVAQCTYNQTVQLDITAFLKTVKKNKHKFYPAFIHILARLMNAHPEFRMAMKDGELVIWDSVHPCYTVFHEQTETFSSLWSEYHDDFRQFLHIYSQDVACYGENLAYFPKGFIENMFFVSANPWVSFTSFDLNVANMDNFFAPVFTMGKYYTQGDKVLMPLAIQVHHAVCDGFHVGRMLNELQQYCDEWQGGA
In the case of B4, the “CAT activity of virions (conversion of chloramphenicol to an acetylated product)” value was “virions which were generated by WT/WF-CAT cells exhibited significantly higher CAT activity (28% conversion of chloramphenicol to an acetylated product) than virions which were generated by Vpr^-/WF-CAT cells (8% conversion)”.
